T1: SRF (serum response factor) (UniProt Q9JM73 Q9JM73:1-504)
T1 sequence: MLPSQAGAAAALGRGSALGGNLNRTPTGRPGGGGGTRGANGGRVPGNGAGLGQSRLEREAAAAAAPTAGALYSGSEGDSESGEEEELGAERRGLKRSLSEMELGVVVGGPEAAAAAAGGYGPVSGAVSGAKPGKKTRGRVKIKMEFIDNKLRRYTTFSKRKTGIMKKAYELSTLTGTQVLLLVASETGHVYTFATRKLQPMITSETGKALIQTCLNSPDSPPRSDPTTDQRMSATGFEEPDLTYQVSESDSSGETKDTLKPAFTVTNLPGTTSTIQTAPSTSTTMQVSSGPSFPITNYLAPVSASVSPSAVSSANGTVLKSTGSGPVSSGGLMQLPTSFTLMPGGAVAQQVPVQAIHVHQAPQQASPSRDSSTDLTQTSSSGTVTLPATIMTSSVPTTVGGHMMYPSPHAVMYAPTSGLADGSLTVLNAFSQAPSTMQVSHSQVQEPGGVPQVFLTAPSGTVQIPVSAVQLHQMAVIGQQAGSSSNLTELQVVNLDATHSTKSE

B1: miR-143/145 enhancer SRF site (CArG) WT (dsDNA)
DNA 1: GGGAGCAGCCTTGCCATATAAGGGCAGG
DNA 2: CCTGCCCTTATATGGCAAGGCTGCTCCC
B2: miR-143/145 enhancer SRF site mutant (dsDNA)
DNA 1: GGGAGCAGCCTTGCTACCGAAGGGCAGG
DNA 2: CCTGCCCTTCGGTAGCAAGGCTGCTCCC

Key:
[1] = target: T1, SRF (serum response factor); test: EMSA; radiolabeled probe; cold WT competition
[2] = target: T1, SRF (serum response factor); test: competition; cold mutant competitor; competition with WT or mutant probe indicates specificity of band

Binder	binding result [1]	binding result [2]
B1	binds	
B2		no binding

Reference: US20120093789, “Methods of Modulating Smooth Muscle Cell Proliferation and Differentiation” (published 2012)
